{
  "source": "the DeepSol protein solubility set",
  "data": [
    {"assay": "soluble on expression in E. coli; label from the status in PepcDB or PDB records", "values": [
      {"sequence": "SLAFEPPRRLVRAFGETAPEGDDWLATLPEVAERAVARRGLTVERVQVPGGRSSLVVLVRTAEGAPAVLKLAPRRARPESERAALVHWGGRGAVQVREEGDEEGVLLLERLHPDVSVRSLPEAKALLEAAGTLRRLWVEPPGSHPFETVAERTGRQAEAMRAGAAADAQVAPLVDAALAARAELLGGPSEQRLLHGTFRQSKVLAGDRMPWLAVGPDPVVGESAFDLARLVRDRVEDLIAQPSGASTTRRRIKRLAESLEVDQERLRGWTLFRAVESGVRARRVGRERDAELLLEFAGWL", "soluble on expression in E. coli": "soluble"},
      {"sequence": "SLATRRPMSIAEPDTAVSTASFMTAWEFPQGDDSAETPTTPKALQFQEPEYIHIPWDHNTDIAPDLMDLCHVVDDRTKAGKRVLIHCQQGASRSASLIIAYGLFQRPELTVNDAYYAAQAKSQWISPNMKLMYSLQDFQKEVSTKRTAQPSNREG", "soluble on expression in E. coli": "not soluble"},
      {"sequence": "SLDITLVFPHQLFADHPAIQAGRTVALIEDPLLFGTDPQWPLRMHHQRRLLHRASMTVYAEQLRGRGFNVIHQRHDAAPDTQGHLQLLHSAGYRHVHLVDLVDHWLERRLNAFAESVALRVSVLPTPMLLTPADVLEKHFGTGKKPLMAKFYEMQRTRLGVLMDAEGRPVGGRWSFDADNRKKLPKDISVPPIPVATPSTVVNTSRQQLAQENLPGVGKLDGFYYP", "soluble on expression in E. coli": "soluble"},
      {"sequence": "SLFIDAHNHLDFFEEQEKLNKALDIIKNDNIITLGCSMDTKSYKFTKSLALKNKNIIPCFGIHPSRAHENFKNLECFDEYIRESKIIGEIGLDYVWVKEKEKYPHMKRVFTYFLEEAKKYNKITNIHTKGAESEIYNYIKKYELKTPIIHWYSGDKDTLKKLLDYGCYFTISVDIGYSKLSKEIVQLLPIDKILTETDGPTSLEWVNGDYGYPNVIKNVVKEISKIKNIQEEEVKGVIENNFKTLIRKEGITL", "soluble on expression in E. coli": "not soluble"},
      {"sequence": "SLGRTRRKNKPITIKSYVVSSDTWQLGCIEYGSHSMSGQRAYNEDRVCVVPSVDVCTREGCCKAHTKAMFYAVYDGHNGEEAVNYVQEHLHKNIFRSRSFHGDVSKAIRAGFIATDNALRSMVMEKIRGEGFEDQDISPFSSGTTACTAVVRDMQLYIGNLGDSRCVLSRAGRSHLITVDHSCRTNADEQQRVREDGGHYDTDGYLNGAIGVSRAFGAFDKNCGQKLSGLTCEPQIHKETLRREDEFMIIACDGVFDVISCQEAVNCPPERLQHKDKRPADWTPTTPGLGEEKAATAEARPSSSSRSPLAATQSGASAGDRTGVSG", "soluble on expression in E. coli": "not soluble"},
      {"sequence": "SLHAQQKAEQLAEREEMVAELSAAKQQITQSEHWRAECELLNNEVRSLQSINTSLEADLREVTTRMEAAQQHADDKIRQMINSEQRLSEQFENLANRIFEHSNRRVDEQNRQSLNSLLSPLREQLDGFRRQVQDSFGKEAQERHTLTHEIRNLQQLNAQMAQEAINLTRALKGDNKTQGNWGEVVLTRVLEASGLREGYEYETQVSIENDARSRMQPDVIVRLPQGKDVVIDAKMTLVAYERYFNAEDDYTRESALQEHIASVRNHIRLLGRKDYQQLPGLRTLDYVLMFIPVEPAFLLALDRQPELITEALKNNIMLVSPTTLLVALRTIANLWRYEHQSRNAQQIADRASKLYDKMRLFVDDMSAIGQSLDKAQDNYRQAMKKLSSGRGNVLAQAEAFRGLGVEIKREINPDLAEQAVSQDEEYRLRSVPEQPNDEAYQRDDEYNQQSR", "soluble on expression in E. coli": "not soluble"},
      {"sequence": "SLHLGEQIWIYQGKKKEWLLGQIPEVNSALVSLNSDNGAIEAIVGGFSFEQSRFNRATQSLVQVGSSIKPFIYAAAMNKGLSLSTTLSDTPITINKQGQKPWEPKNADKRYEGPLRLRVALGKSKNMVAIRALQMSGVDYVADYLSRFGFNPDQFMATEALALGAASFTPLEMARAYAVFDNGGYLIEPYIIDRILDNQGNELFKANPALACLECNHIDLAYQEPTYFDGVKIHDEDQLRAEIDEINANPAASNTQTEDDQEPEIATTIKPQAPSLMTESIKNDASMRYAPRVISGELAFLMRSALNSAIYGEPGQNWHGTSRAIAKAFKRKDIGGKTGTTNNSKVTWYAGFGANIVTTVYVGFDDNRRDLGKGEAGAKTAMPAWIKYMKVALADKK", "soluble on expression in E. coli": "not soluble"},
      {"sequence": "SLIENVDAQADSSWPHRGQIEVRNLTVKYTEAGHAVLKNLSFSAEGRQRVGILGRTGSGKSSLFNALLKLVYTDGEISIDGVNWNKMPLEKWRKAFGVVPQKVFIFTGPLRMNLDPYGCHSDEELWRVAEEVGLKTVIEQFPDKLDFQLEYGGYVLSNGHKQLICLARSILSGARILLLDEPSAHLDPVTIKVLKKTLRQSFSTCTILLSEAKVEPLLECDSFLMMDKGQVKTYDSIQKLLNETSDLKQAISPAE", "soluble on expression in E. coli": "soluble"},
      {"sequence": "SLIFILGIFYYLTQPLKSNSVVFIPQGSISQIITYLKQNKYQMSNIDKYILFFLGHPQSGWINIGTKDLNRAEFLHKLTIAKAALQTITLIPGETSVIFLEQAAKQLGLDKDILLKEFQAQAPYDEGVFLPETYKIPKGITENLLIQMLLNHAEISNKKTSEKIFGDYNPKKWHQYIIIASVIQKEAANDNEMPIVASVIYNRLKKGMKLQMDGTLNYGIYSHVKVTPQRIRQDNSFYNTYKFTGLPKEAVCNVSLAAIRAAIFPLKTDYLYFVRDKNTGVHIFSTNIDDHNKAINLQKGK", "soluble on expression in E. coli": "soluble"},
      {"sequence": "SLIHIAIVEDENKDRELLKEYLDRFQAEKGEPLFVHVYPDGEEFLESFSSGKFDILLLDIHMQYMNGMATAQEIRKSDENVLIIFITNLVQYAVQGYSVRAFDFIVKPVEYSVFAQKLYRATQRLNRTEG", "soluble on expression in E. coli": "soluble"},
      {"sequence": "SLIRSMTGFGSASKTQDDLSVSVELKSVNYRFKEVNARLPRPLLYFEDKLKQTILQHIQRGRIELFVSVDSDMLVEKRLEIDWPLLDEFVAAARDMKKRYQLSAEPDVMDFFKLDHVVQVHEEQTQNDKLEALIIDAAEEAVKGLCEMREKEGLLLAKDCLMHIDQLEELVRETELLAADVVSRYRERLYARIKEWTEDVLDESRLVTECAIFADRSDITEEITRLKSHFAQFRDILASGGAVGRKLDFLVQELNREANTIGSKANDHQITKLVVEMKSSIEKIKEQVQNIE", "soluble on expression in E. coli": "soluble"},
      {"sequence": "SLKKILILDDETSVLNALQRQLIRNNWQVISFKHPATALDYAKHVFFPIVITDYRMPQMSGVEFLLEFQKLQPYAYKIMLSGQAGEYGMTEAINQAKIDYFIHKPWDNCQLLNQIDKGLNHYRQTIKHLLKTNSKRMSREDYLIWYEKLVEQACPSITKVKKNPLGWIEAEEG", "soluble on expression in E. coli": "not soluble"},
      {"sequence": "SLKWDNSYSVHNAKIDEQHKKLFKLAAKVEVVSDRSVSKNEVKELLAEFFNYMKDHFNDEEKYMQLIGYPNLEEHRKIHKEIIQTMINLIKDIKSTNDLKEKLYIVAKKWLLEHILYEDMKVEKWRSSSLSTDDGGDVS", "soluble on expression in E. coli": "soluble"},
      {"sequence": "SLLTALTADNQELFSLIDCSIDELTQIRSEQAFVCPMCHQSVILKAGPIKIPHFAHRKKNSCWYEAEAETEEHLRLKQLFAEKCLREKLSFQVEAYLPTLKQRPDLLIGKIAIEIQCSPLPIKRLVERTETYQTHGYQVVWILGERLVPKDKLTQLTKQFLYFSESLGFYLWSANKKQERIELLCHIEESQCQQFYRRKQSWDFYEKQLLEIFRLPTANLNLLPDRRHTGQLMHDYYQKLTQQLGYRNAQLLRTQSFLYTKGCHLLQLPPWFYYPGLKLIPSSEEDIHLKMLVWEALKTEEERLVTKQELWRILEAIFLEEGNFVWQPLPNIGLKKLFKIVGNNLLRWLQECYVLIKVNNKYLITSIFLREDPEKLIHWLKKVKKQHFFSHTC", "soluble on expression in E. coli": "soluble"},
      {"sequence": "SLNAAAADRNKDPILSVLKSRVASNRRLFALEISSGTGQHVVHFAKAFPNITWQPSEVETQSLSSIEAYRQYHRLQNVQPPIYLDVSQSWQTWGGFPAESCDLIININMMHISPLACTTGLFHGVGQILKPQGLLLTYGPYAFNGSIVPQSNFDFDQSLRYRNPEWGLRDASFLTTLGQENGLRLEEIVDMPANNKCLLFRKDSVV", "soluble on expression in E. coli": "soluble"},
      {"sequence": "SLNERVMMINANGVPIALYNRGHLGSGHFGAVIKASLDDGTLYAAKVPYSQIVPNADATSAELEAEISSARAELVKTIRQELDVRDKLVAKGLTLTETAEQYGLPLCQMTLTLPENKATVVRRGSRLVVVSKEVMLLPLIDGSPSNSLVQSQPPFLFQRAVAREAIIALAKLHELGFAHGDVKLNNMMIDVHGFGHMLDMGSVRPVDSCVSEEDKYYLRLWAPELAKSQHTSQQTCLKRGALDVWALGLAIFEFVCFNRLPYSLSNLPSSLWSRVEHLSRLRLSDFSAKDCNESDPAVMGIVAQFLNPNPEERPELPKFVSSYTFFRQAPGVTSHLTRIPTTELSSHR", "soluble on expression in E. coli": "not soluble"},
      {"sequence": "SLNQDEKRTFRLEKEQELRFEVSNENKVYLTLQSGTAEVFGIELPKKKPVELCDTKLAVFTWQGCELQLQGITDLEYVANETPMHLYLKAHYLLDSMRRKARQQGTKGPKVVIVGPQDSGKSSLCQILSCYAMKGGKKILYASIDFQQGSFSIPGAIGASSVEHVTIEDGMIFENNLVYFYGHTVASENPRLLEKLVSNLSNLLDAKLEDSEMDLGHMGFIADSFGSLDGSNYDVLKQVLKEIKANVIIVLGSERLYADIQRDLCSEQRQIIQLPKSGGVVGRDQYLRRRLQEMQLRCYFYGSDGNLNPFTTVVTFDQVHIVRVGIGLHVPATALPLGAQSTLDPLQISQVTPSTELLHCMLGVSQAEEEEQIVDSPVYGFVHVAKVDISKRTISLLAPSPGKLPGSFLVMGSIRWLE", "soluble on expression in E. coli": "soluble"},
      {"sequence": "SLNSLVSWQLLLFLCATHFGEPLEKVASVGNSRPTGQQLESLGLLAPGEQSLPCTERKPAATARLSRRGTSMSPPPESSGSPQQPGLSAPHSRQIPAPQGAVMVQREKDLPNYNWNSFGLRFGKREAAPGNHGRSAGR", "soluble on expression in E. coli": "soluble"},
      {"sequence": "SLNVLCNNPHTADCNNDAQVDRYFREGTTCLMSPACTSEGYASQHECQQACFVGGEDHSSEMHSSCLGDPPTSCAEGTDITYYDSDSKTCKVLAASCPSGENTFESEVECQVACGAPIEG", "soluble on expression in E. coli": "soluble"},
      {"sequence": "SLPSYVVPEEPLLSAPTVAELTQAVNGAVVSGDVALREREVMGVLAAGMTADHVLERLTDGMAVITPGDRSDVVLAVASAHAAEGFPSLSCIVLNGGFQLHPAIAALVSGLRLRLPVIATALGTYDTASAAASARGLVTATSQRKIDTALELMDRHVDVAGLLAQLTI", "soluble on expression in E. coli": "soluble"},
      {"sequence": "SLPTGGAPGRRWVGCRDMEHEVFVPVPAERLRDVLADPVRVARAVPGLQQDAGAEPVAGRLKVRIGSHSITYRGSLRLSARGDGTYAVEGDATESRGTGAVALALTLRADDAEGGATLTFTGTATADGRVAELPPDSVASAANRLLARFAENLGTAAQAPPAPEPEPSPQPEPRPASVFDTEVPPSSLADSGGGSDSDSDGDADEDTDAGADADADAQADEKAEAEGDADRGGRTDDEPAVSPPAEAAHARRTMIGRSAEEVDHAPPRGRYAPVPAPQPSAVGAPLRW", "soluble on expression in E. coli": "soluble"},
      {"sequence": "SLPWLHRETARSFGGAGSTAGYEQVTAYTLTGQLQSRHLNLPQLDCDYDWNDNGQLIRISGPQESREYRYSDTGRLTGVHTTAANLDIDIPYATDPAGNRLPDPELHPDSTLTAWPDNRIAEDAHYVYRYDEYGRLTEKTDRIPEGVIRMHDERTHHYHYDNQHRLVFYTRIQYGEPLVESRYLYDPLGRRTGKRVWRRERDLTGWMSLSRKPEVTWYGWDGDRLTTVQTGTTRIQTVYRPGSFTPLIRIETENGEREKAQRRSLAEKLQQEGSEDGHGVVFPAELVRMLDRLEEEIRADRVSSESRAWLAQCGLTVEQLEKQVEPEYTPARTLHLYHCDHRGLPLALISEDGNTAWSAEYDEWGNQLNEENPHHLHQPYRLPGQQHDEESGLYYNRHRYYDPLQGRYITPDPIGLRGGWNMYQYPLNPIQVIDPMGLDAIENMTSGGLIYAVSGVPGLIVANSITNSAYQFGYDMDAIVGGAHNGAADAMRYCYLMCRMTKT", "soluble on expression in E. coli": "not soluble"},
      {"sequence": "SLPYRGTLVMLMNEEVNKIITLCGKDWAKIGVEFIFLGGKQECENCKIKKTCLKLKEGAKYKIVGLRDGAVQECPLHDEGVVAVEVVELPIIALVDSKIAVEGAKIHYEQRKCDVYDCSMYSLCHPIELNNGETVIVEKVIGDAPEQCRKGHSVIVAELRRAEE", "soluble on expression in E. coli": "soluble"}
    ]}
  ]
}
